{
  "source": "patent US20090220501A1",
  "about": "(published 2009)",
  "binders": {"B1": {"name": "humanized (chimeric) anti-CD19 IgG1 antibody of the disclosure, 4G7chim (antibody, V domains shown)", "VH": "QVQLQQSGPELIKPGASVKMSCKASGYTFTSYVMHWVKQKPGQGLEWIGYINPYNDGTKYNEKFKGKATLTSDKSSSTAYMELSSLTSEDSAVYYCARGTYYYGSRVFDYWGQGTTLTVTV", "VL": "DIVMTQAAPSIPVTPGESVSISCRSSKSLLNSNGNTYLYWFLQRPGQSPQLLIYRMSNLASGVPDRFSGSGSGTAFTLRISRVEAEDVGVYYCMQHLEYPLTFGAGTKLEIRR", "notes": "also called anti-CD19 antibody of the present disclosure; CD19 chimeric antibody"}},
  "target": "T1, human CD19 (human, UniProt P15391 20-556)",
  "T1 construct": "whole, on cells; also called CD19 B-cell antigen",
  "T1 sequence (looked up)": "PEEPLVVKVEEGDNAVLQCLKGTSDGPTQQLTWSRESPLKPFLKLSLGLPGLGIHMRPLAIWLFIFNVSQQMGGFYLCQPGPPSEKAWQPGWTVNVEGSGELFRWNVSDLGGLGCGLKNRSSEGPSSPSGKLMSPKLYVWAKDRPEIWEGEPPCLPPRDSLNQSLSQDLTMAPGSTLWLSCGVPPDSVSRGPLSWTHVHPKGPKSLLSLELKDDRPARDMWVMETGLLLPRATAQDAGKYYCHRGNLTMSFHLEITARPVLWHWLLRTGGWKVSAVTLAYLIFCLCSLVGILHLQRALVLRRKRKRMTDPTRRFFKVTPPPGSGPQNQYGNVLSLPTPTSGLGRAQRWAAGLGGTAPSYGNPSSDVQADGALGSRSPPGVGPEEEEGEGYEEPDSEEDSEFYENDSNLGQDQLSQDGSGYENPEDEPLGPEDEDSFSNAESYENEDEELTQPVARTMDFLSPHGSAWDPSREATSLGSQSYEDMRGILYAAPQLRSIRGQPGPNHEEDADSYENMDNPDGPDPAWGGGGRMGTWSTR",
  "assay": "flow cytometry on CD19-positive cells with varying antibody concentrations and a fluorescently labeled secondary antibody (Benedict method); mean of 6 experiments",
  "data": [
    {"binder": "B1", "values": [
      {"measurement": "Kd", "value": "~5.5", "unit": "nM"}
    ]}
  ]
}
